Values joined by “and” are separate entries in the source; they are usually repeats but may differ in a detail not shown here. Equal values may be shown once. “Also recorded” adds a separate entry of the source. No end group written: not given here.
How the values were obtained:
[1] = Critical micelle concentration (CMC) by Dynamic Light Scattering; type: physicochemical
Description: The CMC of the amphiphilic peptides was determined by Dynamic Light Scattering (DLS) experiments (PDDLS/Batch setup, Precision Detectors, Franklin, Mass.). Solutions of different peptide concentrations were prepared in PBS and were filtered through 0.4 urn pore size filters prior to measuring. Scattered light was detected at 90° and the number of photons reaching the avalanche photodiode was recorded. The solvent viscosity and the refractive index of the buffer were taken as 0.894 cP and 1.33, respectively, at […]. Data were acquired in triplicates and processed by the Precision Deconvolve program, […]

[2] = AFM imaging of peptide nanovesicles on mica; type: physicochemical; details: for Vesicle diameter, AFM analysis: individual nanovesicles; for Vesicle diameter, AFM analysis / Beads diameter, AFM analysis (necklace-like formations): dry state on mica; for number of nanovesicles per necklace: AFM image analysis; for Clusters diameter, AFM analysis: nanovesicle clusters, dry state
Description: For the AFM experiments, 3 uL were removed from the peptide vesicle dispersions (20 mg/mL of peptides in PBS that has been filtered through 0.2 um filters) and deposited on a freshly cleaved mica surface (G250-2 mica sheets 2.5×2.5×0.015 cm; Agar Scientific Ltd, Essex, UK). The bare surface of mica is smooth (rms is about 0.4 nm). Before imaging, each sample was left on mica for 1 min, rinsed with 200 uL of water (Millipore), and dried in a nitrogen gas stream. Images were obtained immediately in air using a Veeco MultiMode NanoScope 3D Controller Scanning Probe Microscope (Digital Instruments, Santa Barbara, Calif.) operated in tapping mode. AFM imaging (512×512 pixels) was performed using soft silicon probes (FESP; nominal length lnom=225 um, width wnom=28 um, tip radius Rnom=8 nm, resonant frequency νnom=75 kHz, spring constant knom=2.8 N m^−1; Veeco Instruments SAS, Dourdan, France). Typical scanning parameters were tapping frequency 73 kHz, integral and proportional gains 0.2 and 0.4, respectively, set point 0.7-1.0 V, and scanning speed 1.0-1.5 Hz. The Nanoscope image processing software was used to obtain height patterns, cross sections, and MIS of the peptide nanovesicles. Images were collected from two different samples at random spot surface sampling (at least five areas).

[3] = Particle size determination by DLS; type: physicochemical; details: PBS pH 7.4, 25° C.
Description: Prior to measuring particle sizes by DLS, the peptide vesicle formulations in PBS were filtered through 0.4 um filter to remove vesicle aggregates. Normalized intensity-time correlation functions g^(2) (q,t)=I(q,t)I(q,0))/I(q,01))^2 were measured over a broad time scale (from 10^−7 s to 10^4 s) using a full multiple tau digital correlator (ALV-5000FAST) with 280 channels spaced quasi-logarithmically. The scattering wavevector q=4πn sin(θ/2)/λo depends on the scattering angle θ (herein we used 0=90°), the laser wavelength λo, and the refractive index of the medium n, We used the 671 nm line from a diode pumped solid state laser which operated at a power of less than 5 mW. The scattered light was collected by a single-mode optical fiber (coherence factor ˜0.95), transferred to an avalanche photo-detector and then to the digital correlator for analysis. Accumulation times were of the order of few seconds due to the strong scattered intensity from the dispersions. To check the reproducibility of the results, several time correlation functions were recorded for each peptide vesicle system dilute suspensions the normalized electric-field time auto-correlation function g^(1)=(E(q,t)E*(q,0))/(E(q,0))^2 is related to the experimentally recorded intensity autocorrelation function g^(2) (q,t)^2 through the Siegert relation g^(2) (q, t)=B[1+f*|g(1)(q,t)|^2 where B describes the long delay time behavior of g^(2) (q, t) and f* represents an instrumental factor obtained experimentally from measurements of a dilute polystyrene/toluene solution. In our case, the optical fiber collection results in f*˜0.95. The electric-field time correlation function g^(1)(t) (for simplicity we drop the q-dependence) was analyzed as a weighted sum of independent exponential contributions, i.e., g^(1)∫L(τ)exp(−t/τ)dτ=∫L(ln τ)exp(−t/τ)d in τ. The distribution of relaxation times L(lnr)=τL(τ) was obtained by inverse Laplace transformation of g<′>(q,t) using the CONTIN algorithm.
The apparent hydrodynamic radii of the suspended particles were determined using the Stokes-Einstein relation Rh=kBT/6πηD, where kB is the Boltzmann constant, η is the viscosity of the solvent, and D the diffusion coefficient of the particle. The latter is determined by D=1/t q^2. where τ is the relaxation time of g(^1) (q,t).

[4] = Microelectrophoretic mobility (ζ-potential) measurements; type: physicochemical; details: PBS pH 7.4, 20 mg/mL peptide
Description: To determine the ζ-potential of the peptide nanovesicle formulations we used a Nano ZetaSizer (Malvern Instrument, UK) equipped with an avalanche photodiode as detector and a 4 mW He—Ne laser operated at 633 nm. Data were acquired by laser Doppler velocimetry and phase analysis light scattering (PALS). The self-assembling peptides were dispersed in PBS at a concentration of 20 mg/mL, which is above their CMC, and equilibrated for 30 min at 25° C. prior to detection. Microelectrophoretic data were obtained using the Henry-Smoluchowski equation.

[5] = Release of carboxyfluorescein (CF) through peptide vesicles; type: physicochemical; details: for CF retention / release (in words): PBS pH 7.4
Description: To determine whether the peptide vesicles can be used for drug delivery we measured the release kinetics of the hydrophilic fluorescent probe 5,6-carboxyfluorescein (CF) through the peptide bilayer assemblies. The peptide powder was added into the CF solution in PBS and the suspension was probe-sonicated for 10 min followed by equilibration for 1 hour. Encapsulated CF is strongly quenched and therefore, only the released CF contributes to the fluorescence intensity signal. Released CF was removed by centrifugation at 11,000 rpm for 25 min using Microcon YM-10 membrane tubes (10 kDa cut-off). Then the vesicles were re-suspended in PBS and incubated for 1 hour at 20° C. The newly released CF during incubation was collected by centrifugation through the Microcon membrane and the fluorescence intensity was measured. This process was repeated every 1 hour and a graph was created to show the release kinetics of CF as a function of time.

[6] = Hydrophobic drug uptake and release (Nile red); type: physicochemical; details: for Nile red emission maxima: Nile red in peptide nanovesicles; for release kinetics of Nile red through peptide nanovesicles (in words): PBS pH 7.4, 20° C.; for retention of Nile red molecules (in words): compared to KA6-CONH2 and DA6-COOH vesicles
Description: The hydrophobic fluorescent probe Nile red was used as a probe molecule to study the peptide nanovesicle bilayer. […] The “thin film” method was used for the preparation of the dispersions. Briefly, 0.2 mg of the amphiphilic peptide was dissolved in ethanol and subsequently the organic solvent was removed under vacuum in a rotary evaporator. Then the produced thin film was rehydrated with 1 mL of PBS, pH 7.4 containing 3.14 uM Nile red. Prior to analysis the dispersions were bath sonicated for 30 minutes. All spectra were recorded at room temperature with excitation and emission slit widths set at 5 nm (RF-5301 PC Shimatzu spectrophotometer). The excitation wavelength was at 546 nm and the emission spectra were recorded from 550 to 700 nm.

Caco-2 cell monolayers = assay: FITC-dextran 4.4 kDa permeability through Caco-2 monolayer; details: for Papp of FITC-dextran 4.4 kDa: apical to basolateral; for Enhancement ratio (FITC-dextran): R=Papp(peptide)/Papp(control); for enhancement of FITC-dextran transport compared with the control: 1.0 mgmt peptide
Description: Caco-2 cells were seeded at a density of 2×10^5 cells/cm^2 on 24-well 6.5 mm Transwell polyester membrane inserts (0.4 um pore size, Corning Costar, Cambridge, Mass.). The medium was changed every 2-3 days in both sides of the Transwell membrane. After 20 days the growth medium was replaced with 10 mM HBSS/HEPES buffer pH 7.4 and studies of the cell-monolayer integrity and permeability were performed.
For the permeability assay, we added in the apical side of the Transwell 1 mg/mL FITC-dextran MW 4.4 kDa (Sigma) in 10 mM HBSS/HEPES buffer pH 7.4 with and without 0.2 or 1.0 mg/mL of self-assembling peptides. At each time point, samples were withdrawn from the basorateral side and the amount of FITC-dextran was measured using a fluorescence 96-well plate reader. The excitation and emission wavelengths were 490 nm and 530 nm, respectively. Results were expressed as cumulative transepithelial transport of FITC-dextran as a function of time. All measurements were done in triplicates and expressed as mean±S.D. The apparent permeability coefficient was calculated according to Papp=(dQ/dt)/(dt)/(ACo) in cm/s, where dQ, is the cumulative amount of FITC-dextran in the basolateral side at time t, (dQ/dt) in pmol/s is the permeability rate, Co is the initial concentration of FITC-dextran in the apical side and A is the area of the monolayer. The enhancement ratio R equals to R=(Papp(peptide)/Papp(control)).

P-glycoprotein = P-glycoprotein (Homo sapiens, UniProt P08183); assay: Transepithelial transport of Rhodamine-123 (basolateral to apical); details: control additions: 100 uM Verapamil or 1% SDS
Sequence of P-glycoprotein (P08183 whole entry): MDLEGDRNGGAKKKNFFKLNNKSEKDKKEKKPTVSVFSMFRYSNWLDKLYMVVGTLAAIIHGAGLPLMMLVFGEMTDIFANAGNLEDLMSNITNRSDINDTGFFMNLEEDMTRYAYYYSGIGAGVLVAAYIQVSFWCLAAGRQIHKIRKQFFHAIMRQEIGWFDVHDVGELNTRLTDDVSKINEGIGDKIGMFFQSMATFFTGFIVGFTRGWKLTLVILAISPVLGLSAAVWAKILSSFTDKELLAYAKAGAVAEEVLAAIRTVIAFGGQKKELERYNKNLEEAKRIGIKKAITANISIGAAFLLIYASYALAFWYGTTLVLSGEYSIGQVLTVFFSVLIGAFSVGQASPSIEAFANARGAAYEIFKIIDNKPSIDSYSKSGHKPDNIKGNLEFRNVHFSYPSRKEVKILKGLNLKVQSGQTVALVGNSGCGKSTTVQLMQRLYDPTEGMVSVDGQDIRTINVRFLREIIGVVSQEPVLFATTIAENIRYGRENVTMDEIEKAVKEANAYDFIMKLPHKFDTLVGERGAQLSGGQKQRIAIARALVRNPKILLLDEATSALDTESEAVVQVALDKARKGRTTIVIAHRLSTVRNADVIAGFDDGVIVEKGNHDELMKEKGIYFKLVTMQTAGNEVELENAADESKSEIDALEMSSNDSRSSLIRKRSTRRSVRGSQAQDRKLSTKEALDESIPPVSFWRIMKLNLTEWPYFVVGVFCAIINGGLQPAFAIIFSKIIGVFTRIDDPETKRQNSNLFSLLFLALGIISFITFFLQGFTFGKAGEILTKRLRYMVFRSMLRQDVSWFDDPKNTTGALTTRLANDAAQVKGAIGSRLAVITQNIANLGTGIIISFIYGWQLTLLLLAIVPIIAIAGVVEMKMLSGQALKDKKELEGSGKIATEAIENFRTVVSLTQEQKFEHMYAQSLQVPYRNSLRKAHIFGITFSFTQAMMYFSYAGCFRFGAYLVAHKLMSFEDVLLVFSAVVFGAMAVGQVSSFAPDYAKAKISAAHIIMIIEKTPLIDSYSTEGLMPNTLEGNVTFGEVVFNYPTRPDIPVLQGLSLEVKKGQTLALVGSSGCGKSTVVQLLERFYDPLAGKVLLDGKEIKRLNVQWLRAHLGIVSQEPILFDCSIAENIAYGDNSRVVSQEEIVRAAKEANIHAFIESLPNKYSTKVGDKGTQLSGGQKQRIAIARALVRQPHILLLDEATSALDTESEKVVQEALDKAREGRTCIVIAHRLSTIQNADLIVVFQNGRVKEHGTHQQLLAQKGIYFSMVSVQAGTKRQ
Description: C18 150 mm×46 mm, 3.5 um analytical column, flow rate 0.85 ml/min, detector was set at 500 nm) [15]. The mobile phase, which consisted of acetonitrile, 20 mM sodium acetate buffer pH 4.0, and water containing 1.5 mM. […] Before the end of the experiment, the transepithelial resistance was measured to ensure that the cell monolayer integrity had not been affected by the experimental conditions.

Description for Caco-2 cells: Caco-2 cells (passage 40) were grown at 37° C. in tissue culture flasks with Dubelco's Modified Essential Medium (DMEM) supplemented with 10% v/v FBS (Fetal Bovine Serum) 1% nonessential amino acids and 100 ug/mL penicillin and streptomycin in humidified atmosphere containing 5% v/v CO2. The medium was changed every 2-3 days until cells reach 80% confluence and then were subcultured by trypsinization.
The effect of self-assembling peptides on cell viability and cell proliferation was investigated using the MTT colorimetric assay (Sigma). Caco-2 cells were cultured into the wells of 96-well plates using growth medium until a density of 4×10^3 cells/cm^2 was reached. Then we replaced the growth medium with fresh growth medium containing 0.2 or 1.0 mg/mL self-assembling peptides and the cells were incubated for 3, 24 and 48 h at 37° C. Then 10 uL of MTT reagent was added in each of the wells and the plates were incubated for 3 hat 37° C. Then 100 uL of the detergent solution was added and the plates were stored in the dark for 3 h to dissolve the formazan product. The optical density was measured at 600 nm in a Teknika® ELISA Plate spectrophotometer.

Row | Compound | CMC in PBS [1] [mg/mL] | Vesicle diameter, AFM analysis [2] [nm] | Vesicle diameter, DLS analysis [3] | ζ-potential [4] [mV] | CF retention / release (in words) [5] | Nile red emission maxima ([6]; PBS pH 7.4) [nm] | release kinetics of Nile red through peptide nanovesicles (in words) [6] | retention of Nile red molecules (in words) [6] | Caco-2 cell viability (Caco-2 cells) | Papp of FITC-dextran 4.4 kDa (Caco-2 cell monolayers; 0.2 mg/ml peptide) | Enhancement ratio (FITC-dextran) (Caco-2 cell monolayers; 0.2 mg/ml peptide) | Papp of FITC-dextran 4.4 kDa (Caco-2 cell monolayers; 1.0 mg/ml peptide) | Enhancement ratio (FITC-dextran) (Caco-2 cell monolayers; 1.0 mg/ml peptide) | enhancement of FITC-dextran transport compared with the control (Caco-2 cell monolayers) [fold] | number of nanovesicles per necklace [2] | Beads diameter, AFM analysis (necklace-like formations) [2] [nm] | Clusters diameter, AFM analysis [2] [nm] | further results
1 | acetyl-AAAAAAK-CONH2 (Ac-AAAAAAK-NH2) [Ac-A6K-CONH2] | 0.16 | 126 ± 23 | 122 (30-173) nm | 8.5±0.3 | significantly retained the negatively charged CF | 631 | release was slower | retain higher numbers of Nile red molecules | exceeding 100% | 1.20 ± 0.36 10^-5 cm/s | 4.4 | 1.51 ± 0.37 10^-5 cm/s | 5.7 | 5.7 |  |  |  | Vesicle diameter, AFM analysis ([2]; listed as ac-A6K-CONH2): ~126 nm; Vesicle diameter, DLS analysis ([3]; listed as ac-A6K-CONH2): 122 nm; CF release through peptide nanovesicles ([5]; after 7 h, PBS pH 7.4, 20° C.): approximately 50%; Nile red fluorescence yield compared to other peptide nanovesicle systems ([6]; PBS pH 7.4): significantly higher
2 | CCCCCCCCCCCCOS(=O)(=O)[O-].[Na+] [SDS 1%] |  |  |  |  |  |  |  |  |  |  |  |  |  |  |  |  |  | Enhancement ratio (Rhodamine-123) (P-glycoprotein): 3.0; Papp of Rhodamine-123 (P-glycoprotein; basolateral to apical): 3.28 ± 0.02 10^-5 cm/s
3 | acetyl-AAAAAAD-COOH (Ac-AAAAAAD-OH) [Ac-A6D-COOH] | 0.05 | 28 ± 9 | 97 (30-320) nm | −15.4±1.1 | only a small CF retention efficiency | 626 | release was slower | to a lesser extent | exceeding 100% | 1.82 ± 0.24 10^-5 cm/s | 6.7 | 2.13 ± 0.16 10^-5 cm/s | 7.9 | 7.9 | 23±3 and 23 | 200 ± 11 | 101 ± 11 | Beads diameter, AFM analysis (necklace-like formations) ([2]; listed as ac-A6D-COOH): 200±11 nm; Vesicle diameter, AFM analysis ([2]; listed as ac-A6D-COOH): 28±9 nm and ~43 nm; Clusters diameter, AFM analysis ([2]; listed as ac-A6D-COOH): 101±11 nm; Vesicle diameter, DLS analysis ([3]; listed as ac-A6D-COOH): 97 nm; initially loaded CF retained by vesicles ([5]; after 7 h, PBS pH 7.4, 20° C.): 13%
4 | KAAAAAA-NH2 [KA6-CONH2] | 0.07 | 169 ± 29 | 164 (65-350) nm | 12.4±0.9 |  | 623 |  |  |  |  | 4.0 |  | 5.1 | 5.1 |  |  |  | average diameter of second DLS peak (probably aggregates of individual vesicles) [3]: 906 nm; CF retention / release (in words) ([5]; listed as KA6-CONH): did not retain CF
5 | DAAAAAA-OH [DA6-COOH] | 0.12 | 43 ± 11 | 137 (64-725) nm | −14.0±1.1 | Fast CF release; also recorded: did not retain CF | 647 |  |  |  |  | 5.0 |  | 6.6 | 6.6 | 11±2 and 11 | 159±26 | 135±24 | Vesicle diameter, AFM analysis ([2]; listed as DA6-COON): 43±11 nm

Reference: patent US20150147384A1, “Sustained Delivery of Molecules Using Peptide Surfactants and Uses Thereof” (Massachusetts Institute of Technology, priority 2012, published 2015)
